Among the data in patent US20140161804A1 (AbbVie / Abbott, published 2014) are EC50 values, retold here.

The target of this experiment is T1, Human IL-17A (human, UniProt Q16552 20-155, limits assumed).
T1 construct: Biotinylated in the ELISAs; purified recombinant protein in SPR; also called hIL17A; hIL-17
As to the kind of experiment: ELISA, captured DVD-Ig, biotin-human IL-17 titrated. The protocol: The following protocol is used to characterize the binding of TNF/IL-17 DVD-Ig proteins to human TNF and IL-17 by enzyme-linked immunosorbent assay (ELISA). An ELISA plate was coated with 50 μl per well of goat anti mouse IgG-Fc at 2 μg/ml, overnight at 4° C. The plate was washed 3 times with PBS/Tween. 50 μl Mab diluted to 1 μg/ml in PBS/0.1% BSA was added to appropriate wells and incubated for 1 hour at room temperature (RT). The plate was washed 3 times with PBS/Tween. 50 μl of serial diluted biotin-human TNF or IL-17 was added to appropriate wells and incubated for 1 hour at RT. The plate was washed 3 times with PBS/Tween. 50 μl of streptavidin-HRP diluted 1:10,000 in PBS/0.1% BSA was added to appropriate wells and incubated for 1 hour at RT. The plate was washed 3 times with PBS/Tween. 50 μl of TMB was added to appropriate wells and the reaction allowed to proceed for 1 minute. The reaction was stopped with 50 μl/well 2N H₂SO₄ and the absorbance read at 450 nm.

Changes are numbered by the printed parent chain.

T1 sequence (Q16552 20-155 limits assumed): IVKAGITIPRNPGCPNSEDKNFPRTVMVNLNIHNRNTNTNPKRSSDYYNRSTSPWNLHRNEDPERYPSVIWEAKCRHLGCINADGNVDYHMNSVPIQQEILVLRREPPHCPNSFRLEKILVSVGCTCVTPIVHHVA

B1: hMAK195-24-h10F7-M11.4 DVD-Ig wt (bispecific antibody, human IgG1, kappa)
heavy: not shown
light: DIQMTQSPSSLSASVGDRVTITCKASQLVSSAVAWYQQKPGKAPKLLIYWASTLHTGVPSRFSGSGSGTDFTLTISSLQPEDFATYYCQQHYRTPFTFGQGTKLEIKRTVAAPDIQMTQSPSSLSASVGDRVTITCRASSGIISYIDWFQQKPGKAPKRLIYATFDLASGVPSRFSGSGSGTDYTLTISSLQPEDFATYYCRQVGSYPETFGQGTKLEIKRTVAAPSVFIFPPSDEQLKSGTASVVCLLNNFYPREAKVQWKVDNALQSGNSQESVTEQDSKDSTYSLSSTLTLSKADYEKHKVYACEVTHQGLSSPVTKSFNRGEC
notes: DVD-Ig; wild-type IgG1 (CG1 Z NONA), kappa; short (SS) linkers ASTKGP / TVAAP; also called HMAK195-24-SS-H10F7-M11 DVD
B1: the EC50 (as a rule, the concentration giving half of the maximal effect) was above 0.5 nM.

B2: hMAK199-6-h10F7-M11.8 DVD-Ig (bispecific antibody, human IgG1, kappa, L234A L235A)
heavy: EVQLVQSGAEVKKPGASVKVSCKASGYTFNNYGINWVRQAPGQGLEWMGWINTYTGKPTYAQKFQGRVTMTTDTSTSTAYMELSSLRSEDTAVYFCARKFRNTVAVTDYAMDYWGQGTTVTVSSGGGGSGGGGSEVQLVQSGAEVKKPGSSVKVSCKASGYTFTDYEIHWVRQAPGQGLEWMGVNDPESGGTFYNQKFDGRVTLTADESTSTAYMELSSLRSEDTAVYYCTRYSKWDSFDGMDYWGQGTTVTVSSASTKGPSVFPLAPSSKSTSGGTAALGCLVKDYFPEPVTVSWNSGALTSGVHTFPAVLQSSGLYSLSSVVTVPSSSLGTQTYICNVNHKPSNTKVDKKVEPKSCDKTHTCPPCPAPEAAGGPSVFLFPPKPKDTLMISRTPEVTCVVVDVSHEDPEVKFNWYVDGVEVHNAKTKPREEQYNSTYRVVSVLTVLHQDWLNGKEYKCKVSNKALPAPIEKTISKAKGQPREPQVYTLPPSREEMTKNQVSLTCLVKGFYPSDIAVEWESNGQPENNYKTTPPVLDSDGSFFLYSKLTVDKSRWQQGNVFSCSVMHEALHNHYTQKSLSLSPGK
light: DIQMTQSPSSLSASVGDRVTITCRASQDIYDVLNWYQQKPGKAPKLLIYYASRLQSGVPSRFSGSGSGTDFTLTISSLQPEDFATYYCQQGITLPPTFGQGTKLEIKRGGSGGGGSGDIQMTQSPSSLSASVGDRVTITCRASSGIISYIDWFQQKPGKAPKRLIYATFDLASGVPSRFSGSGSGTDYTLTISSLQPEDFATYYCRQVGSYPETFGQGTKLEIKRTVAAPSVFIFPPSDEQLKSGTASVVCLLNNFYPREAKVQWKVDNALQSGNSQESVTEQDSKDSTYSLSSTLTLSKADYEKHKVYACEVTHQGLSSPVTKSFNRGEC
notes: DVD-Ig; IgG1 234,235 mut, kappa; GS10 linkers; also called HMAK199-6-GS10-H10F7-M11 DVD
In the case of B2, the EC50 came to 0.104 nM.

B3: hMAK199-10-h10F7-M10.8 DVD-Ig (bispecific antibody, human IgG1, kappa, L234A L235A)
heavy: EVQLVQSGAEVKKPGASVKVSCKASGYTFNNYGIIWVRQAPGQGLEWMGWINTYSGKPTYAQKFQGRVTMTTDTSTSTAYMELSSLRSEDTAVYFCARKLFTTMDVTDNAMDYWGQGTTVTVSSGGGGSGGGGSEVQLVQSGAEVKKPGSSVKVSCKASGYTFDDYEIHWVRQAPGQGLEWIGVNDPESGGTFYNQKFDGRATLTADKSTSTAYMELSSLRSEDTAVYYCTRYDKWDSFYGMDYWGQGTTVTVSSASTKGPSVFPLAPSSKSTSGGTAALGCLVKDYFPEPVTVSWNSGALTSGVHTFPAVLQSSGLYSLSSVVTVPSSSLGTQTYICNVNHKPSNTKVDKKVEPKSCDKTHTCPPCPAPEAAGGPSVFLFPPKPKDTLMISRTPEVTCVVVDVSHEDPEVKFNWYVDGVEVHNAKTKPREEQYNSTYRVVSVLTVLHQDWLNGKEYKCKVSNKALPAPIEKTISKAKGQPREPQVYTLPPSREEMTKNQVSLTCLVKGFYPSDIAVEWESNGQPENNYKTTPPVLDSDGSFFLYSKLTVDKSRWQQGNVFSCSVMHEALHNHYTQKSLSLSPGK
light: DIQMTQSPSSLSASVGDRVTITCRASQDISNFLNWYQQKPGKAPKLLIYYTSRLQSGVPSRFSGSGSGTDYTLTISSLQPEDFATYFCQQGNTQPPTFGQGTKLEIKRGGSGGGGSGDIQMTQSPSSLSASVGDRVTITCSASSGSISYIDWFQQKPGKAPKRLIYATFELASGVPSRFSGSGSGTDFTLTISSLQPEDFATYYCHQLGSYPDTFGQGTKLEIKRTVAAPSVFIFPPSDEQLKSGTASVVCLLNNFYPREAKVQWKVDNALQSGNSQESVTEQDSKDSTYSLSSTLTLSKADYEKHKVYACEVTHQGLSSPVTKSFNRGEC
notes: DVD-Ig; IgG1 234,235 mut, kappa; GS10 linkers; also called HMAK199-10-GS10-H10F7-M10 DVD
In turn, B3 registered an EC50 of 0.079 nM.

B4: hMAK199-6-h10F7-M10.8 DVD-Ig (bispecific antibody, human IgG1, kappa, L234A L235A)
heavy: not shown
light: B2 light with R141S, I146S, D170E, Y188F, R206H, V208L, E213D
notes: DVD-Ig; IgG1 234,235 mut, kappa; GS10 linkers; also called HMAK199-6-GS10-H10F7-M10 DVD
As for B4, the EC50 is 0.163 nM.

B5: hMAK199-10-h10F7-M11.8 DVD-Ig (bispecific antibody, human IgG1, kappa, L234A L235A)
heavy: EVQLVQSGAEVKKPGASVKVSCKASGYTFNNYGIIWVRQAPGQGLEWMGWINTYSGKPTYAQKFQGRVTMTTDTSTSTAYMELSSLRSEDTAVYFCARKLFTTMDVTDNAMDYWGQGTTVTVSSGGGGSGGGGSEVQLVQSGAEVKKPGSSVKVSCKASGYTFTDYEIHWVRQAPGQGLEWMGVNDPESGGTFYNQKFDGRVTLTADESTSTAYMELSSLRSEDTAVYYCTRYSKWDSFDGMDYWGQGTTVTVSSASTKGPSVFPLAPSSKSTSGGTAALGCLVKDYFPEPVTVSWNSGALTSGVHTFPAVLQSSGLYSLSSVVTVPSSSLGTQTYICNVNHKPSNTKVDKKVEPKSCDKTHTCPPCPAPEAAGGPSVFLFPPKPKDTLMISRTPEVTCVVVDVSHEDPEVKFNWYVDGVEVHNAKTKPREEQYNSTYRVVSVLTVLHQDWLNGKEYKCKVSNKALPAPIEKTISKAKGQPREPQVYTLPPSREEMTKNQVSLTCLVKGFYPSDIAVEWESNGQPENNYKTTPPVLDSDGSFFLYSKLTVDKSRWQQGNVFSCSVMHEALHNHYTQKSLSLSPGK
light: B3 light with S141R, S146I, E170D, F188Y, H206R, L208V, D213E
notes: DVD-Ig; IgG1 234,235 mut, kappa; GS10 linkers; also called HMAK199-10-GS10-H10F7-M11 DVD
B5: a half-maximal effect (EC50) was put at 0.133 nM.

B6: hMAK195-21-h10F7-A11.8 DVD-Ig (bispecific antibody, human IgG1, kappa, L234A L235A)
heavy: not shown
light: DIQMTQSPSSLSASVGDRVTITCRASQLVSSAVAWYQQKPGKAPKLLIYWASARHTGVPSRFSGSGSGTDFTLTISSLQPEDFATYYCQQHYKTPFTFGQGTKLEIKRGGSGGGGSGDIQMTQSPSSLSASVGDRVTITCRASSGIISYIDWFQQKPGKAPKRLIYATFDLASGVPSRFSGSGSGTDYTLTISSLQPEDFATYYCRQVGSYPETFGQGTKLEIKRTVAAPSVFIFPPSDEQLKSGTASVVCLLNNFYPREAKVQWKVDNALQSGNSQESVTEQDSKDSTYSLSSTLTLSKADYEKHKVYACEVTHQGLSSPVTKSFNRGEC
notes: DVD-Ig; IgG1 234,235 mut, kappa; GS10 linkers; light chain shared with the M11 DVD-Ig; also called hMAK195-21-GS10-A11 DVD
B6 gave an EC50 of 0.3 nM.

B7: hMAK195-24-h10F7-A11.8 DVD-Ig (bispecific antibody, human IgG1, kappa, L234A L235A)
heavy: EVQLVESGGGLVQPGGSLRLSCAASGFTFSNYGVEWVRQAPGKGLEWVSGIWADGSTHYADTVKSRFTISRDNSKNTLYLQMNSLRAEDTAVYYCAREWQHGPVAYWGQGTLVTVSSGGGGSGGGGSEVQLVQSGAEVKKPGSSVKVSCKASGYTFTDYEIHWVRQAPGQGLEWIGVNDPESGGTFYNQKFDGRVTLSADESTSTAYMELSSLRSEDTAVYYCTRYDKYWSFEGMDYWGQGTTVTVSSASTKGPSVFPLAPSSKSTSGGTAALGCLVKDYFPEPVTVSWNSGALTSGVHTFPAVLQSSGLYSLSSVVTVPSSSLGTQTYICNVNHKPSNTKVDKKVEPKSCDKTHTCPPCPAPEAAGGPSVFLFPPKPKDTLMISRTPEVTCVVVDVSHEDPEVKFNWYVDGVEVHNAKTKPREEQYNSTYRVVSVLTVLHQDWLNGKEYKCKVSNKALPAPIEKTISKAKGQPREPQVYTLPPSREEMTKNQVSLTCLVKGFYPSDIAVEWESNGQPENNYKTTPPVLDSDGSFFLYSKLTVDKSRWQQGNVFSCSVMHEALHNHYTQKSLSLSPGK
light: B6 light with R24K, A53T, R54L, K93R
notes: DVD-Ig; IgG1 234,235 mut, kappa; GS10 linkers; also called hMAK195-24-GS10-A11 DVD
B7 yielded an EC50 of 0.295 nM.

B8: hMAK195-21-h10F7-A16.8 DVD-Ig (bispecific antibody, human IgG1, kappa, L234A L235A)
heavy: not shown
light: B6 light with R141S, S144Q, I147R, A160S, S210N, E213G
notes: DVD-Ig; IgG1 234,235 mut, kappa; GS10 linkers; light chain shared with the A6 DVD-Ig; also called ShMAK195-21-h10F7-A16.8 DVD-Ig; hMAK195-21-GS10-A16 DVD
Consider B8, for which the EC50 came out at 0.23 nM.

B9: hMAK195-24-h10F7-A16.8 DVD-Ig (bispecific antibody, human IgG1, kappa, L234A L235A)
heavy: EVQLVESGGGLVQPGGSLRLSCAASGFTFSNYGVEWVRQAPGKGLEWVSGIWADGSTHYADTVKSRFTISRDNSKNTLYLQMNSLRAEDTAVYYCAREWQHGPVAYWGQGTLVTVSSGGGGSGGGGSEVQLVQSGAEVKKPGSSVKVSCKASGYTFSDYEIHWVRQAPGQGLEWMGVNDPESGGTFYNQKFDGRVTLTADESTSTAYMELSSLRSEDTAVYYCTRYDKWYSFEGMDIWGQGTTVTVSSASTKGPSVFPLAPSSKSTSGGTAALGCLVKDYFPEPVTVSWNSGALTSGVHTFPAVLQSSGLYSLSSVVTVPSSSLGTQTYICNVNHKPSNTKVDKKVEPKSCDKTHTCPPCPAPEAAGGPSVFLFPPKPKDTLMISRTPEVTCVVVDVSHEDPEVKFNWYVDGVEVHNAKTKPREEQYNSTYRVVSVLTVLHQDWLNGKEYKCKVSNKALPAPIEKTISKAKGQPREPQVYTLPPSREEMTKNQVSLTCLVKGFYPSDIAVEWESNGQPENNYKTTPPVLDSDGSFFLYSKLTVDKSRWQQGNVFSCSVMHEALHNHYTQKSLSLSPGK
light: B6 light with R24K, A53T, R54L, K93R, R141S, S144Q, I147R, A160S, S210N, E213G
notes: DVD-Ig; IgG1 234,235 mut, kappa; GS10 linkers; light chain shared with the A6 DVD-Ig; also called hMAK195-24-GS10-A16 DVD
In turn, B9 came in with an EC50 of 0.093 nM.

B10: hMAK195-21-h10F7-M10.8 DVD-Ig (bispecific antibody, human IgG1, kappa, L234A L235A)
heavy: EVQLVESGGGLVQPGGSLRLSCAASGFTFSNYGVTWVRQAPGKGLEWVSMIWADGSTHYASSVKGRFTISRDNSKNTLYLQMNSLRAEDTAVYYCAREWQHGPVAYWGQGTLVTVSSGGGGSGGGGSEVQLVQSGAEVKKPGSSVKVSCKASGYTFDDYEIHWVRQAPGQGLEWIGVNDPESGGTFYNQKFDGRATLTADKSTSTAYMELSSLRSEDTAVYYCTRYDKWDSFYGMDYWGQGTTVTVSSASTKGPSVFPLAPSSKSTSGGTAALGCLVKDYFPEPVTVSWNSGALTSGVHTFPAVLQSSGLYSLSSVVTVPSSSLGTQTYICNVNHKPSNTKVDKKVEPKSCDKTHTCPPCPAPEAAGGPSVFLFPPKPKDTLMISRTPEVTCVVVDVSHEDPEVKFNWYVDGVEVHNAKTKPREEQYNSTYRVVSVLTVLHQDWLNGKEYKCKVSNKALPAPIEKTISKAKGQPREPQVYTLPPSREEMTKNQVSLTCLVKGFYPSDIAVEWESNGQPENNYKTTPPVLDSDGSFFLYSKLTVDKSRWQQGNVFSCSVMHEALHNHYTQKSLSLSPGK
light: B6 light with R141S, I146S, D170E, Y188F, R206H, V208L, E213D
notes: DVD-Ig; IgG1 234,235 mut, kappa; GS10 linkers; also called hMAK195-21-GS10-M10 DVD
For B10, a half-maximal response (EC50) required 0.1 nM.

B11: hMAK195-24-h10F7-A6.8 DVD-Ig (bispecific antibody, human IgG1, kappa, L234A L235A)
heavy: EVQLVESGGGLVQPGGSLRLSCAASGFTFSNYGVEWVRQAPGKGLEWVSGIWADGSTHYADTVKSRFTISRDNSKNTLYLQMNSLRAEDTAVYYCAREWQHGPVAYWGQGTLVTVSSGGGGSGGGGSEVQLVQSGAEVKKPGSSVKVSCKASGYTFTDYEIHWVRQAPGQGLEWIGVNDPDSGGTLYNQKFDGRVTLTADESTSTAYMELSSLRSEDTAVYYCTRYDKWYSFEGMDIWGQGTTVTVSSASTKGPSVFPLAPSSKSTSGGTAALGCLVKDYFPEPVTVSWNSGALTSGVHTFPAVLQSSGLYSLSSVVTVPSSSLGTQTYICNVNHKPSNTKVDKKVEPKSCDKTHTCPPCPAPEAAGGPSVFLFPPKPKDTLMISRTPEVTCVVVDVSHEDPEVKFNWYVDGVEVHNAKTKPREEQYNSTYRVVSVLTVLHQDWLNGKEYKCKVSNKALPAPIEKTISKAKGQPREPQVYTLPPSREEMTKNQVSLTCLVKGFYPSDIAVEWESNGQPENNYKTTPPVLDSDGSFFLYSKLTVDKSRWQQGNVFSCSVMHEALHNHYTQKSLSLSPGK
light: B6 light with R24K, A53T, R54L, K93R, R141S, S144Q, I147R, A160S, S210N, E213G
notes: DVD-Ig; IgG1 234,235 mut, kappa; GS10 linkers; also called hMAK195-24-GS10-A6 DVD
Consider B11, for which the EC50 is 0.188 nM.

B12: hMAK195-21-h10F7-A6.8 DVD-Ig (bispecific antibody, human IgG1, kappa, L234A L235A)
heavy: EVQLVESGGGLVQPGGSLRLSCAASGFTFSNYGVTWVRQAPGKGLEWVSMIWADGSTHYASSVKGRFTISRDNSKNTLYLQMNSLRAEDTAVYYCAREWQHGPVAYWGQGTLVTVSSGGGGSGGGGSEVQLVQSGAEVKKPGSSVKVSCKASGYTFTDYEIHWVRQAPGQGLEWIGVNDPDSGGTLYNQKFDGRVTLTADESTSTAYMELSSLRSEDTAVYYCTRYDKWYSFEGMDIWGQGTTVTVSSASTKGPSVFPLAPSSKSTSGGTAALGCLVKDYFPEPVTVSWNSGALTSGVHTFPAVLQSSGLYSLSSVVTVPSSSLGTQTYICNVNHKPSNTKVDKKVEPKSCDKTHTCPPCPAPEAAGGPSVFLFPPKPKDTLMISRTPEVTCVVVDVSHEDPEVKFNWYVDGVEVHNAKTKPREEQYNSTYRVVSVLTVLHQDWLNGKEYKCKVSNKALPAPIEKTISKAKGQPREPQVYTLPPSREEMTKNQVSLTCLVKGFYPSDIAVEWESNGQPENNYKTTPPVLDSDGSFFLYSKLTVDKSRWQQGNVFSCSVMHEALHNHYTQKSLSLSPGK
light: B6 light with R141S, S144Q, I147R, A160S, S210N, E213G
notes: DVD-Ig; IgG1 234,235 mut, kappa; GS10 linkers; also called hMAK195-21-GS10-A6 DVD
The molecule B12 had an EC50 of 0.13 nM.

B13: hMAK195-21-h10F7-B20.8 DVD-Ig (bispecific antibody, human IgG1, kappa, L234A L235A)
heavy: not shown
light: B6 light
notes: DVD-Ig; IgG1 234,235 mut, kappa; GS10 linkers; light chain shared with the M11 DVD-Ig; also called hMAK195-21-GS10-B20 DVD
As to B13, the midpoint of the response, the EC50, lay at 0.242 nM.

B14: hMAK195-24-h10F7-M10.8 DVD-Ig (bispecific antibody, human IgG1, kappa, L234A L235A)
heavy: not shown
light: DIQMTQSPSSLSASVGDRVTITCKASQLVSSAVAWYQQKPGKAPKLLIYWASTLHTGVPSRFSGSGSGTDFTLTISSLQPEDFATYYCQQHYRTPFTFGQGTKLEIKRGGSGGGGSGDIQMTQSPSSLSASVGDRVTITCSASSGSISYIDWFQQKPGKAPKRLIYATFELASGVPSRFSGSGSGTDFTLTISSLQPEDFATYYCHQLGSYPDTFGQGTKLEIKRTVAAPSVFIFPPSDEQLKSGTASVVCLLNNFYPREAKVQWKVDNALQSGNSQESVTEQDSKDSTYSLSSTLTLSKADYEKHKVYACEVTHQGLSSPVTKSFNRGEC
notes: DVD-Ig; IgG1 234,235 mut, kappa; GS10 linkers; also called hMAK195-24-GS10-M10 DVD
As to B14, the midpoint of the response, the EC50, lay at 0.1 nM.

B15: hMAK195-21-h10F7-B13.8 DVD-Ig (bispecific antibody, human IgG1, kappa, L234A L235A)
heavy: not shown
light: B6 light
notes: DVD-Ig; IgG1 234,235 mut, kappa; GS10 linkers; light chain shared with the M11 DVD-Ig; also called hMAK195-21-GS10-B13 DVD
Regarding B15, the EC50 stood at 0.2 nM.

B16: hMAK199-4-h10F7-M11.4 DVD-Ig wt (bispecific antibody, human IgG1, kappa)
heavy: not shown
light: DIQMTQSPSSLSASVGDRVTITCRASQDIENYLNWYQQKPGKAPKLLIYYTSRLQSGVPSRFSGSGSGTDFTLTISSLQPEDFATYFCQQGNTQPPTFGQGTKLEIKRTVAAPDIQMTQSPSSLSASVGDRVTITCRASSGIISYIDWFQQKPGKAPKRLIYATFDLASGVPSRFSGSGSGTDYTLTISSLQPEDFATYYCRQVGSYPETFGQGTKLEIKRTVAAPSVFIFPPSDEQLKSGTASVVCLLNNFYPREAKVQWKVDNALQSGNSQESVTEQDSKDSTYSLSSTLTLSKADYEKHKVYACEVTHQGLSSPVTKSFNRGEC
notes: DVD-Ig; wild-type IgG1 (CG1 Z NONA), kappa; short (SS) linkers; also called HMAK199-4-SS-H10F7-M11 DVD
Regarding B16, the EC50 is above 0.5 nM.

B17: h10F7-M11-hMAk199-4.4 DVD-Ig wt (bispecific antibody, human IgG1, kappa)
heavy: not shown
light: DIQMTQSPSSLSASVGDRVTITCRASSGIISYIDWFQQKPGKAPKRLIYATFDLASGVPSRFSGSGSGTDYTLTISSLQPEDFATYYCRQVGSYPETFGQGTKLEIKRTVAAPDIQMTQSPSSLSASVGDRVTITCRASQDIENYLNWYQQKPGKAPKLLIYYTSRLQSGVPSRFSGSGSGTDFTLTISSLQPEDFATYFCQQGNTQPPTFGQGTKLEIKRTVAAPSVFIFPPSDEQLKSGTASVVCLLNNFYPREAKVQWKVDNALQSGNSQESVTEQDSKDSTYSLSSTLTLSKADYEKHKVYACEVTHQGLSSPVTKSFNRGEC
notes: DVD-Ig, IL-17 outer / TNF inner domain; wild-type IgG1, kappa; short linkers
B17 returned an EC50 of 0.04 nM.

B18: h10F7-M11-hMAK199-4.8 DVD-Ig wt (bispecific antibody, human IgG1, kappa)
heavy: not shown
light: DIQMTQSPSSLSASVGDRVTITCRASSGIISYIDWFQQKPGKAPKRLIYATFDLASGVPSRFSGSGSGTDYTLTISSLQPEDFATYYCRQVGSYPETFGQGTKLEIKRGGSGGGGSGDIQMTQSPSSLSASVGDRVTITCRASQDIENYLNWYQQKPGKAPKLLIYYTSRLQSGVPSRFSGSGSGTDFTLTISSLQPEDFATYFCQQGNTQPPTFGQGTKLEIKRTVAAPSVFIFPPSDEQLKSGTASVVCLLNNFYPREAKVQWKVDNALQSGNSQESVTEQDSKDSTYSLSSTLTLSKADYEKHKVYACEVTHQGLSSPVTKSFNRGEC
notes: DVD-Ig, IL-17 outer / TNF inner domain; wild-type IgG1, kappa; GS10 linkers
Regarding B18, a half-maximal effect (EC50) was put at 0.05 nM.
